Target: depolymerase enzyme encoded by Klebsiella phage KP36 (depoKP36) (Klebsiella phage KP36)
Test: SEC-MALS; 2 mg of purified, non-aggregated protein on an S200 10/30 column in 200 mM NaCl, 25 mM HEPES, 5% glycerol, pH 7.8; flow 0.5 mL/min

Chain of depolymerase enzyme encoded by Klebsiella phage KP36 (depoKP36) (K9L8K6 whole entry): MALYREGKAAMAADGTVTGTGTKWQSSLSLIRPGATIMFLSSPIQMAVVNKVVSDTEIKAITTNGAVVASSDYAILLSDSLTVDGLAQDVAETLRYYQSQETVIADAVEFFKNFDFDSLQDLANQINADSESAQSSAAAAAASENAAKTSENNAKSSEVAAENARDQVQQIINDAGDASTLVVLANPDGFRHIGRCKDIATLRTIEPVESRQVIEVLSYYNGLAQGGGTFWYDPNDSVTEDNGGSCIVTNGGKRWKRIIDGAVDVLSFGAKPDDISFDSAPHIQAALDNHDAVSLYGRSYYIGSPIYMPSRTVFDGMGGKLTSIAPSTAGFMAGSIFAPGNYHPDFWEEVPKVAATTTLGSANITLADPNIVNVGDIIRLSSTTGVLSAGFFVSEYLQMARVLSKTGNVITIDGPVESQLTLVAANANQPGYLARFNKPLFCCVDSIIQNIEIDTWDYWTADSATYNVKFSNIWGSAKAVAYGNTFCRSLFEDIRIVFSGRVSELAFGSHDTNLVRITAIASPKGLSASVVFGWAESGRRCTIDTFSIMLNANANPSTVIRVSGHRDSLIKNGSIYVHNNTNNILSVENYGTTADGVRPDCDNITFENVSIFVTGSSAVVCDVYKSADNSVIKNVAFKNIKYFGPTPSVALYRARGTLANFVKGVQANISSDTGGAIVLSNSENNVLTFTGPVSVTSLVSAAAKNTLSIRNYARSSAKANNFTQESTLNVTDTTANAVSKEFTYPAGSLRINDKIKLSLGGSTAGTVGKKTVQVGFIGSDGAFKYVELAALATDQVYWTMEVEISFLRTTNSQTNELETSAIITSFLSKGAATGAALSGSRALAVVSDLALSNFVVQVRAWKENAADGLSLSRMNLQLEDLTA

## depolymerase enzyme encoded by Klebsiella phage KP36 (depoKP36)
  stoichiometry N: 3

From PMC5192385
